The values below come from patent publication US5543392A, “Digestive tract cell activating agent of EGF and lactoferrin” (Morinaga Milk Industry Co., Ltd., priority 1992, dated 1996).

Assay [1] concerns IEC18 cells. Briefly: Test 3: proliferation of small intestine epithelial cells (cell count by hemocytometer). The format is cell-based, rat. Conditions: single addition of 50 μg/ml; sixth and tenth days of culture; compared with control group and EGF single group. How it is done: ICE18 cells (the same ones as in the Test 1) were inoculated onto a 24-well culture plate by 5,000 cells per well, and were cultured for ten days with 1% FBS DMEM (0.5 ml) containing the following test subjects. During this test period, the medium was replaced on the third and the sixth days, and the number of cells was measured on the third, the sixth and the tenth days. The number of cells was counted by a hemocytometer after treating the cells with 0.25% trypsin solution and suspending them in the solution.
The test subjects included a sample added with nothing, a sample added with 10 ng/ml EGF, a sample added with 50 μg/ml bLf or bLf-Hy, and a sample added with 10 ng/ml EGF and 50 μg/ml bLf or bLf-Hy.

Assay [2] concerns IEC18 cells. Briefly: Test 2: effect of simultaneous use of Lf or Lf-Hy and EGF on DNA synthesis (3H-thymidine incorporation). The format is cell-based, rat. Conditions: single use of bLf, various concentrations.

B1: bLf: bovine lactoferrin (manufactured by Yukijirushi Nyugyo Company) (protein, UniProt P24627 20-708, looked up)
Lactotransferrin: APRKNVRWCTISQPEWFKCRRWQWRMKKLGAPSITCVRRAFALECIRAIAEKKADAVTLDGGMVFEAGRDPYKLRPVAAEIYGTKESPQTHYYAVAVVKKGSNFQLDQLQGRKSCHTGLGRSAGWIIPMGILRPYLSWTESLEPLQGAVAKFFSASCVPCIDRQAYPNLCQLCKGEGENQCACSSREPYFGYSGAFKCLQDGAGDVAFVKETTVFENLPEKADRDQYELLCLNNSRAPVDAFKECHLAQVPSHAVVARSVDGKEDLIWKLLSKAQEKFGKNKSRSFQLFGSPPGQRDLLFKDSALGFLRIPSKVDSALYLGSRYLTTLKNLRETAEEVKARYTRVVWCAVGPEEQKKCQQWSQQSGQNVTCATASTTDDCIVLVLKGEADALNLDGGYIYTAGKCGLVPVLAENRKSSKHSSLDCVLRPTEGYLAVAVVKKANEGLTWNSLKDKKSCHTAVDRTAGWNIPMGLIVNQTGSCAFDEFFSQSCAPGADPKSRLCALCAGDDQGLDKCVPNSKEKYYGYTGAFRCLAEDVGDVAFVKNDTVWENTNGESTADWAKNLNREDFRLLCLDGTRKPVTEAQSCHLAVAPNHAVVSRSDRAAHVKQVLLHQQALFGKNGKNCPDKFCLFKSETKNLLFNDNTECLAKLGGRPTYEEYLGTEYVTAIANLKKCSTSPLLEACAFLTR
With B1, the “number of cells (FIGS. 3 and 4)” value in assay [1] is recorded as “significantly increased”. Also, in assay [2], the “quantity of incorporated 3H-thymidine into DNA (FIG. 1)” value is on record as “no effect”.
